Experimental findings from PMC8531669, “Quantitative proteomics identifies the universally conserved ATPase Ola1p as a positive regulator of heat shock response in Saccharomyces cerevisiae” (The Journal of Biological Chemistry, 2021) are described below.

This data set concerns the molecule itself. The data set is described as follows: light scattering coupled to nanoDSF; Ola1p (4 μM in Fig. 3G) in 20 mM PIPES pH 7.0, 100 mM KCl, 1 mM TCEP; temperature ramp 0.5 °C/min from 20 °C to 70 °C; read between 38 and 42 °C. On the technique in general: In DSF a fluorescence change marks the thermal transition of the protein.

B1: Ola1p (natural protein, S. cerevisiae, UniProt P38219 1-394, looked up)
chain: MPPKKQVEEKKVLLGRPGNNLKAGIVGLANVGKSTFFQAITRCPLGNPANYPFATIDPEEARVIVPSPRFDKLCEIYKKTASEVPAHLTVYDIAGLTKGASAGEGLGNAFLSHIRSVDSIYQVVRCFDDAEIIHVEGDVDPVRDLEIINQELRLKDIEFAQKALEGAEKIAKRGGQSLEVKQKKEEMDLITKIIKLLESGQRVANHSWTSKEVEIINSMFLLTAKPCIYLINLSERDYIRKKNKHLLRIKEWVDKYSPGDLIIPFSVSLEERLSHMSPEDAEEELKKLQTISALPKIITTMRQKLDLISFFTCGPDEVREWTIRRGTKAPQAAGVIHNDLMNTFILAQVMKCEDVFEYKDDSAIKAAGKLMQKGKDYVVEDGDIIYFRAGAGKN
notes: Ola1p (Obg-like ATPase 1), S. cerevisiae, systematic name Ybr025c; The methods say that the MBP tag was cleaved with Precision protease; also called Ybr025c; MBP-Ola1p (before cleavage); source: insect cells (baculovirus expression system), purified (amylose resin, size-exclusion chromatography); not shown: MBP, N-terminal, cleaved
Take B1: the binding result is “binds”.
